Data from patent US5914109.

Assays:
[1] = biological target: gp120 of HTLV-IIIB (HIV-1 isolate IIIB)
[2] = biological target: gp120 of HIV-1 isolate AL-1 (HIV-1 isolate AL-1)
[3] = biological target: gp120 of HIV-1 isolate DU 7887-7 (HIV-1 isolate DU 7887-7)
[4] = biological target: gp120 of HIV-1 isolate RF (HIV-1 isolate RF) (UniProt P04579)
[5] = biological target: gp120 of HIV-1 isolate SF-2 (virus) (HIV-1 isolate SF-2) (UniProt P03378)
[6] = biological target: gp120 of HIV-1 isolate WMJ-2 (HIV-1 isolate WMJ-2)
[7] = biological target: gp120 of HIVMN (HIV-1 strain MN) (UniProt P05877)
[8] = biological target: gp120 of HTLV-IIIB (HIV-1 isolate IIIB); remark: listed apart in the source
[9] = biological target: heptapeptide GPGRAFY (pin 12) (HIV-1 strain MN); experiment: pin ELISA, heptapeptide on pin, mAb at 10 µg/ml
[10] = biological target: heptapeptide GRAFYTT (pin 14) (HIV-1 strain MN); experiment: pin ELISA, heptapeptide on pin, mAb at 10 µg/ml
[11] = biological target: heptapeptide HIGPGRA (pin 10) (HIV-1 strain MN); experiment: pin ELISA, heptapeptide on pin, mAb at 10 µg/ml
[12] = biological target: heptapeptide IGPGRAF (pin 11) (HIV-1 strain MN); experiment: pin ELISA, heptapeptide on pin, mAb at 10 µg/ml
[13] = biological target: heptapeptide PGRAFYT (pin 13) (HIV-1 strain MN); experiment: pin ELISA, heptapeptide on pin, mAb at 10 µg/ml
[14] = biological target: heptapeptide RAFYTTK (pin 15) (HIV-1 strain MN); experiment: pin ELISA, heptapeptide on pin, mAb at 10 µg/ml
[15] = biological target: 20-mer V3 peptide of HIVSF2 (HIV-1 isolate SF-2); experiment: ELISA on V3 peptide coated plates, mAb at 10 µg/ml
[16] = biological target: 22-mer V3 peptide of HXB2 (HIV-1 HXB2 (IIIB)); experiment: ELISA on V3 peptide coated plates, mAb at 10 µg/ml
[17] = biological target: 23-mer peptide of the gp120 V3 loop of the MN strain of HIV-1 (HIV-1 strain MN); experiment: ELISA on V3 peptide coated plates, mAb at 10 µg/ml
[18] = biological target: V3-CDC4 peptide (HIV-1 isolate CDC4); experiment: ELISA on V3 peptide coated plates, mAb at 10 µg/ml
[19] = biological target: V3-NY5 peptide (HIV-1 isolate NY5); experiment: ELISA on V3 peptide coated plates, mAb at 10 µg/ml
[20] = biological target: V3-RF peptide (HIV-1 isolate RF); experiment: ELISA on V3 peptide coated plates, mAb at 10 µg/ml
[21] = biological target: V3-SC peptide (HIV-1 isolate SC); experiment: ELISA on V3 peptide coated plates, mAb at 10 µg/ml
[22] = biological target: V3-WM52 peptide (HIV-1 isolate WM52); experiment: ELISA on V3 peptide coated plates, mAb at 10 µg/ml
[23] = biological target: 20-mer V3 peptide of HIVSF2 (HIV-1 isolate SF-2); experiment: competition ELISA in solution at equilibrium (Friguet method)
[24] = biological target: 22-mer V3 peptide of HXB2 (HIV-1 HXB2 (IIIB)); experiment: as above

## human mAb 694-D (antibody)
[1]
  50% neutralization, CEM-SS syncytium-forming assay, IgG concentration: 0.04 µg/mL
  90% neutralization, CEM-SS syncytium-forming assay, IgG concentration: 1.4 µg/mL
[2]
  neutralization endpoint, MT-4 cell killing assay: 0.04 µg/mL
[3]
  neutralization endpoint, MT-4 cell killing assay: > 25 µg/mL
[4]
  neutralization endpoint, MT-4 cell killing assay: > 25 µg/mL
[5]
  neutralization endpoint, MT-4 cell killing assay: 0.04 µg/mL
[6]
  neutralization endpoint, MT-4 cell killing assay: 6.25 µg/mL
[7]
  neutralization endpoint, MT-4 cell killing assay: 3.13 µg/mL
[8]
  neutralization endpoint, MT-4 cell killing assay: 0.78 µg/mL
[9]
  ELISA Reactivity (absorbance at 410 nm) (absorbance at 410 nm): > 2
[10]
  ELISA Reactivity (absorbance at 410 nm) (absorbance at 410 nm): 1.23
[11]
  ELISA Reactivity (absorbance at 410 nm) (absorbance at 410 nm): 0.14
[12]
  ELISA Reactivity (absorbance at 410 nm) (absorbance at 410 nm): 1.37
[13]
  ELISA Reactivity (absorbance at 410 nm) (absorbance at 410 nm): 1.4
[14]
  ELISA Reactivity (absorbance at 410 nm) (absorbance at 410 nm): 0.089
[15]
  minimum antigen concentration giving positive results (µg/ml of V3 peptide used to coat): 0.01
[16]
  minimum antigen concentration giving positive results (µg/ml of V3 peptide used to coat): 0.1
[17]
  minimum antigen concentration giving positive results (µg/ml of V3 peptide used to coat): 0.01
[18]
  minimum antigen concentration giving positive results (µg/ml of V3 peptide used to coat): 1
[19]
  minimum antigen concentration giving positive results (µg/ml of V3 peptide used to coat): 1
[20]
  minimum antigen concentration giving positive results (µg/ml of V3 peptide used to coat): 1
[21]
  minimum antigen concentration giving positive results (µg/ml of V3 peptide used to coat): 0.02
[22]
  minimum antigen concentration giving positive results (µg/ml of V3 peptide used to coat): 0.6
[23]
  Kd: 1.8 µM
[24]
  Kd: 12 µM
